Laboratory results reported in patent publication US20130336893A1 (Sanofi, published 2013).
*1 amine or outer side, *2 acyl side, *3 side chain or, on linkers, in order; H or OH if unused. Where no end group is shown, it is not given here. Side-chain parts run from the residue outwards. [ ]: non-standard residue; d: D form. The star is where a group is joined. γGlu = O=C(O)[C@H](CCC(=O)[*:2])N[*:1]; Palmitoyl = CCCCCCCCCCCCCCCC(=O)*; Aib = CC(C)(N)C(=O)O

Columns and labels:
human GLP-1 receptor = human GLP-1 receptor (human, UniProt P43220 24-463); assay: cell-based or functional assay
human glucagon receptor = human glucagon receptor (human, UniProt P47871 26-477); assay: cell-based or functional assay
Sequence of human glucagon receptor (P47871 26-477): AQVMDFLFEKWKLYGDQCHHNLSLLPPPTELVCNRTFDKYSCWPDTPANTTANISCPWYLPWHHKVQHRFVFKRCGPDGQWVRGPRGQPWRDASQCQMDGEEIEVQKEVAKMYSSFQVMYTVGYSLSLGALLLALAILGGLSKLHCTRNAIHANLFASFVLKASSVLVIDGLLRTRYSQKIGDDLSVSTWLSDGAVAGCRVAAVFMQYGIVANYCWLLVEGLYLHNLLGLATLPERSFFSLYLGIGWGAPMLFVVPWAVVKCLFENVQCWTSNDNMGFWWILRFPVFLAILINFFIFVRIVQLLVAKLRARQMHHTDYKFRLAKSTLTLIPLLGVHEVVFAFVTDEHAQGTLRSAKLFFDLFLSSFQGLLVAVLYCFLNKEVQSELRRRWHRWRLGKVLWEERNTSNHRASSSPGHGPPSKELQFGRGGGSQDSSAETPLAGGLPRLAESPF

| Binder | EC50 hGLP-1R (cAMP formation) (human GLP-1 receptor) | EC50 hGlucagonR (cAMP formation) (human glucagon receptor) |
| --- | --- | --- |
| H[Aib]QGTFTSDLSKQMDSRRAQDFIEWLKNGGPSSGAPPPSK([γGlu-Palmitoyl])-NH2 (N-terminus assumed; SMILES CCCCCCCCCCCCCCCC(=O)N[C@@H](CCC(=O)NCCCC[C@H](NC(=O)[C@H](CO)NC(=O)[C@@H]1CCCN1C(=O)[C@@H]1CCCN1C(=O)[C@@H]1CCCN1C(=O)[C@H](C)NC(=O)CNC(=O)[C@H](CO)NC(=O)[C@H](CO)NC(=O)[C@@H]1CCCN1C(=O)CNC(=O)CNC(=O)[C@H](CC(N)=O)NC(=O)[C@H](CCCCN)NC(=O)[C@H](CC(C)C)NC(=O)[C@H](Cc1c[nH]c2ccccc12)NC(=O)[C@H](CCC(=O)O)NC(=O)[C@@H](NC(=O)[C@H](Cc1ccccc1)NC(=O)[C@H](CC(=O)O)NC(=O)[C@H](CCC(N)=O)NC(=O)[C@H](C)NC(=O)[C@H](CCCNC(=N)N)NC(=O)[C@H](CCCNC(=N)N)NC(=O)[C@H](CO)NC(=O)[C@H](CC(=O)O)NC(=O)[C@H](CCSC)NC(=O)[C@H](CCC(N)=O)NC(=O)[C@H](CCCCN)NC(=O)[C@H](CO)NC(=O)[C@H](CC(C)C)NC(=O)[C@H](CC(=O)O)NC(=O)[C@H](CO)NC(=O)[C@@H](NC(=O)[C@H](Cc1ccccc1)NC(=O)[C@@H](NC(=O)CNC(=O)[C@H](CCC(N)=O)NC(=O)C(C)(C)NC(=O)[C@@H](N)Cc1c[nH]cn1)[C@@H](C)O)[C@@H](C)O)[C@@H](C)CC)C(N)=O)C(=O)O) [SEQ ID NO: (59)] | 0.0029 nM | 0.0409 nM |
| H[dS]QGTFTSDLSKQMESRRAQDFIEWLKNAGPSSGAPPPSK([γGlu-Palmitoyl])-NH2 (N-terminus assumed; SMILES CCCCCCCCCCCCCCCC(=O)N[C@@H](CCC(=O)NCCCC[C@H](NC(=O)[C@H](CO)NC(=O)[C@@H]1CCCN1C(=O)[C@@H]1CCCN1C(=O)[C@@H]1CCCN1C(=O)[C@H](C)NC(=O)CNC(=O)[C@H](CO)NC(=O)[C@H](CO)NC(=O)[C@@H]1CCCN1C(=O)CNC(=O)[C@H](C)NC(=O)[C@H](CC(N)=O)NC(=O)[C@H](CCCCN)NC(=O)[C@H](CC(C)C)NC(=O)[C@H](Cc1c[nH]c2ccccc12)NC(=O)[C@H](CCC(=O)O)NC(=O)[C@@H](NC(=O)[C@H](Cc1ccccc1)NC(=O)[C@H](CC(=O)O)NC(=O)[C@H](CCC(N)=O)NC(=O)[C@H](C)NC(=O)[C@H](CCCNC(=N)N)NC(=O)[C@H](CCCNC(=N)N)NC(=O)[C@H](CO)NC(=O)[C@H](CCC(=O)O)NC(=O)[C@H](CCSC)NC(=O)[C@H](CCC(N)=O)NC(=O)[C@H](CCCCN)NC(=O)[C@H](CO)NC(=O)[C@H](CC(C)C)NC(=O)[C@H](CC(=O)O)NC(=O)[C@H](CO)NC(=O)[C@@H](NC(=O)[C@H](Cc1ccccc1)NC(=O)[C@@H](NC(=O)CNC(=O)[C@H](CCC(N)=O)NC(=O)[C@@H](CO)NC(=O)[C@@H](N)Cc1c[nH]cn1)[C@@H](C)O)[C@@H](C)O)[C@@H](C)CC)C(N)=O)C(=O)O) [SEQ ID NO: (64)] | 0.0219 nM | 0.067 nM |
| H[Aib]QGTFTSDLSKQMESRRAQDFIEWLKNGGPSSGAPPPSK([γGlu-Palmitoyl])-NH2 (N-terminus assumed; SMILES CCCCCCCCCCCCCCCC(=O)N[C@@H](CCC(=O)NCCCC[C@H](NC(=O)[C@H](CO)NC(=O)[C@@H]1CCCN1C(=O)[C@@H]1CCCN1C(=O)[C@@H]1CCCN1C(=O)[C@H](C)NC(=O)CNC(=O)[C@H](CO)NC(=O)[C@H](CO)NC(=O)[C@@H]1CCCN1C(=O)CNC(=O)CNC(=O)[C@H](CC(N)=O)NC(=O)[C@H](CCCCN)NC(=O)[C@H](CC(C)C)NC(=O)[C@H](Cc1c[nH]c2ccccc12)NC(=O)[C@H](CCC(=O)O)NC(=O)[C@@H](NC(=O)[C@H](Cc1ccccc1)NC(=O)[C@H](CC(=O)O)NC(=O)[C@H](CCC(N)=O)NC(=O)[C@H](C)NC(=O)[C@H](CCCNC(=N)N)NC(=O)[C@H](CCCNC(=N)N)NC(=O)[C@H](CO)NC(=O)[C@H](CCC(=O)O)NC(=O)[C@H](CCSC)NC(=O)[C@H](CCC(N)=O)NC(=O)[C@H](CCCCN)NC(=O)[C@H](CO)NC(=O)[C@H](CC(C)C)NC(=O)[C@H](CC(=O)O)NC(=O)[C@H](CO)NC(=O)[C@@H](NC(=O)[C@H](Cc1ccccc1)NC(=O)[C@@H](NC(=O)CNC(=O)[C@H](CCC(N)=O)NC(=O)C(C)(C)NC(=O)[C@@H](N)Cc1c[nH]cn1)[C@@H](C)O)[C@@H](C)O)[C@@H](C)CC)C(N)=O)C(=O)O) [SEQ ID NO: (62)] | 0.0063 nM | 0.13 nM |
| H[dS]QGTFTSDLSKQMDSRRAQDFIEWLKN[dA]GPSSGAPPPSK([γGlu-Palmitoyl])-NH2 [SEQ ID NO: (68)] | 0.0123 nM |  |
| H[dS]QGTFTSDLSKQMDSRRAQDFIEWLKSGGPSSGAPPPSK([γGlu-Palmitoyl])-NH2 (N-terminus assumed; SMILES CCCCCCCCCCCCCCCC(=O)N[C@@H](CCC(=O)NCCCC[C@H](NC(=O)[C@H](CO)NC(=O)[C@@H]1CCCN1C(=O)[C@@H]1CCCN1C(=O)[C@@H]1CCCN1C(=O)[C@H](C)NC(=O)CNC(=O)[C@H](CO)NC(=O)[C@H](CO)NC(=O)[C@@H]1CCCN1C(=O)CNC(=O)CNC(=O)[C@H](CO)NC(=O)[C@H](CCCCN)NC(=O)[C@H](CC(C)C)NC(=O)[C@H](Cc1c[nH]c2ccccc12)NC(=O)[C@H](CCC(=O)O)NC(=O)[C@@H](NC(=O)[C@H](Cc1ccccc1)NC(=O)[C@H](CC(=O)O)NC(=O)[C@H](CCC(N)=O)NC(=O)[C@H](C)NC(=O)[C@H](CCCNC(=N)N)NC(=O)[C@H](CCCNC(=N)N)NC(=O)[C@H](CO)NC(=O)[C@H](CC(=O)O)NC(=O)[C@H](CCSC)NC(=O)[C@H](CCC(N)=O)NC(=O)[C@H](CCCCN)NC(=O)[C@H](CO)NC(=O)[C@H](CC(C)C)NC(=O)[C@H](CC(=O)O)NC(=O)[C@H](CO)NC(=O)[C@@H](NC(=O)[C@H](Cc1ccccc1)NC(=O)[C@@H](NC(=O)CNC(=O)[C@H](CCC(N)=O)NC(=O)[C@@H](CO)NC(=O)[C@@H](N)Cc1c[nH]cn1)[C@@H](C)O)[C@@H](C)O)[C@@H](C)CC)C(N)=O)C(=O)O) [SEQ ID NO: (65)] | 0.015 nM | 0.0057 nM |
| HSQGTFTSDLSKQMDSRRAQDFIEWLKNGGPSSGAPPPK([γGlu-Palmitoyl])-NH2 [SEQ ID NO: (6)] | 0.0031 nM |  |
| H[dS]QGTFTSDLSKQMESRRAQDFIEWLKNGGPSSGAPPPSK([γGlu-Palmitoyl])-NH2 (N-terminus assumed; SMILES CCCCCCCCCCCCCCCC(=O)N[C@@H](CCC(=O)NCCCC[C@H](NC(=O)[C@H](CO)NC(=O)[C@@H]1CCCN1C(=O)[C@@H]1CCCN1C(=O)[C@@H]1CCCN1C(=O)[C@H](C)NC(=O)CNC(=O)[C@H](CO)NC(=O)[C@H](CO)NC(=O)[C@@H]1CCCN1C(=O)CNC(=O)CNC(=O)[C@H](CC(N)=O)NC(=O)[C@H](CCCCN)NC(=O)[C@H](CC(C)C)NC(=O)[C@H](Cc1c[nH]c2ccccc12)NC(=O)[C@H](CCC(=O)O)NC(=O)[C@@H](NC(=O)[C@H](Cc1ccccc1)NC(=O)[C@H](CC(=O)O)NC(=O)[C@H](CCC(N)=O)NC(=O)[C@H](C)NC(=O)[C@H](CCCNC(=N)N)NC(=O)[C@H](CCCNC(=N)N)NC(=O)[C@H](CO)NC(=O)[C@H](CCC(=O)O)NC(=O)[C@H](CCSC)NC(=O)[C@H](CCC(N)=O)NC(=O)[C@H](CCCCN)NC(=O)[C@H](CO)NC(=O)[C@H](CC(C)C)NC(=O)[C@H](CC(=O)O)NC(=O)[C@H](CO)NC(=O)[C@@H](NC(=O)[C@H](Cc1ccccc1)NC(=O)[C@@H](NC(=O)CNC(=O)[C@H](CCC(N)=O)NC(=O)[C@@H](CO)NC(=O)[C@@H](N)Cc1c[nH]cn1)[C@@H](C)O)[C@@H](C)O)[C@@H](C)CC)C(N)=O)C(=O)O) [SEQ ID NO: (61)] | 0.0042 nM | 0.0304 nM |
| H[dS]QGTFTSDLSKQMDSRRAQDFIEWLKNTGPSSGAPPPSK([γGlu-Palmitoyl])-NH2 (N-terminus assumed; SMILES CCCCCCCCCCCCCCCC(=O)N[C@@H](CCC(=O)NCCCC[C@H](NC(=O)[C@H](CO)NC(=O)[C@@H]1CCCN1C(=O)[C@@H]1CCCN1C(=O)[C@@H]1CCCN1C(=O)[C@H](C)NC(=O)CNC(=O)[C@H](CO)NC(=O)[C@H](CO)NC(=O)[C@@H]1CCCN1C(=O)CNC(=O)[C@@H](NC(=O)[C@H](CC(N)=O)NC(=O)[C@H](CCCCN)NC(=O)[C@H](CC(C)C)NC(=O)[C@H](Cc1c[nH]c2ccccc12)NC(=O)[C@H](CCC(=O)O)NC(=O)[C@@H](NC(=O)[C@H](Cc1ccccc1)NC(=O)[C@H](CC(=O)O)NC(=O)[C@H](CCC(N)=O)NC(=O)[C@H](C)NC(=O)[C@H](CCCNC(=N)N)NC(=O)[C@H](CCCNC(=N)N)NC(=O)[C@H](CO)NC(=O)[C@H](CC(=O)O)NC(=O)[C@H](CCSC)NC(=O)[C@H](CCC(N)=O)NC(=O)[C@H](CCCCN)NC(=O)[C@H](CO)NC(=O)[C@H](CC(C)C)NC(=O)[C@H](CC(=O)O)NC(=O)[C@H](CO)NC(=O)[C@@H](NC(=O)[C@H](Cc1ccccc1)NC(=O)[C@@H](NC(=O)CNC(=O)[C@H](CCC(N)=O)NC(=O)[C@@H](CO)NC(=O)[C@@H](N)Cc1c[nH]cn1)[C@@H](C)O)[C@@H](C)O)[C@@H](C)CC)[C@@H](C)O)C(N)=O)C(=O)O) [SEQ ID NO: (71)] | 0.0056 nM |  |
| HGEGTFTSDLSKQMDSRRAQDFIEWLKNGGPSSGAPPPS-NH2 [SEQ ID NO: (4)] | 0.0174 nM | 565 nM |
| H[dS]QGTFTSDLSKQMDSRRAQDFIEWLKNAGPSSGAPPPSK([γGlu-Palmitoyl])-NH2 [SEQ ID NO: (67)] | 0.0215 nM |  |
